Results published in the Immune Epitope Database (IEDB).

Legend:
HLA-B*18:01 = experiment: IEDB peptide-MHC binding, purified MHC/direct/fluorescence; filed as Kd, often an IC50 or EC50 that approximates it; ≥ and ≤ were set here for values at or beyond the usual limits of such assays
HLA-B*40:01 = experiment: as above; conditions: source organism: Entamoeba histolytica HM-1:IMSS
HLA-A*32:01 = experiment: IEDB peptide-MHC binding, purified MHC/competitive/radioactivity; filed as Kd, often an IC50 or EC50 that approximates it; ≥ and ≤ were set here for values at or beyond the usual limits of such assays
HLA-B*15:01 = experiment: as above; conditions: source organism: Vaccinia virus WR
HLA-B*08:01 = experiment: as above
HLA-A*02:03 = experiment: as above
HLA-A*02:06 = experiment: as above
HLA-A*68:02 = experiment: as above
HLA-A*30:01 = experiment: as above
HLA-B*35:01 = experiment: as above
HLA-A*02:02 = experiment: as above; conditions: source organism: Lassa virus Josiah
HLA-B*53:01 = experiment: as above; conditions: source organism: Dengue virus 1 Singapore/S275/1990
[1] = source organism: Vaccinia virus WR
[2] = source organism: Dengue virus 3 Martinique/1243/1999
[3] = source organism: Dengue virus 4 Philippines/H241/1956
[4] = source organism: Lassa virus Josiah

## RERGLALHV
HLA-B*18:01; source organism: Salmonella enterica subsp. enterica serovar Typhimurium str. LT2
  Kd: 4500 nM

## REVEEIIKY
HLA-B*18:01; source organism: Entamoeba histolytica HM-1:IMSS
  Kd: 25.3 nM
HLA-B*40:01
  Kd: 94.1 nM

## RLIVLFEVF
HLA-A*32:01; [1]
  Kd: 12.6 nM
HLA-B*15:01
  Kd: 6.84 nM

## RMRFKKGAV
HLA-B*08:01; [1]
  Kd: 5.38 nM

## RTATLILAGV
HLA-A*02:03; [2]
  Kd: 6.47 nM
HLA-A*02:06; [2]
  Kd: 5.19 nM
HLA-A*68:02; [2]
  Kd: 0.26 nM

## RTRGPLGIL
HLA-A*30:01; [1]
  Kd: 0.0861 nM

## RVHDTNATK
HLA-A*30:01; [1]
  Kd: 7.65 nM

## RVKQISIST
HLA-A*30:01; source organism: Vaccinia virus Copenhagen
  Kd: 0.369 nM

## SAVPVHWVPT
HLA-A*32:01; [2]
  Kd: 2000 nM

## SGMVFTSPV
HLA-B*08:01; [1]
  Kd: 77.3 nM

## SKGWKNWQEV
HLA-A*32:01; [3]
  Kd: 19800 nM

## SKGWNDWQQV
HLA-A*32:01; source organism: Dengue virus 1 Brazil/97-11/1997
  Kd: ≥ 56200 nM

## SPYYRNSVA
HLA-B*08:01; [1]
  Kd: 111 nM

## SRFKKVYIL
HLA-B*08:01; [1]
  Kd: 76.4 nM

## VAATMANEM
HLA-B*35:01; source organism: Dengue virus 2 Jamaica/1409/1983
  Kd: 572 nM

## VLIALSVLAV
HLA-A*02:02
  Kd: 162 nM
HLA-A*02:03; [4]
  Kd: 12.2 nM
HLA-A*02:06; [4]
  Kd: 128 nM
HLA-A*68:02; [4]
  Kd: 3750 nM

## WAFCEVLTL
HLA-B*35:01; [3]
  Kd: 571 nM

## WAKNIHTAI
HLA-B*08:01; [3]
  Kd: 23.3 nM

## WATLLSLTF
HLA-B*35:01; source organism: Dengue virus 1 Singapore/S275/1990
  Kd: 125 nM
HLA-B*53:01
  Kd: 4.07 nM

## WNTGFDWITD
HLA-A*32:01; [3]
  Kd: 1150 nM

## WTAGADTSEV
HLA-A*68:02; source organism: Dengue virus 4 Dominica/814669/1981
  Kd: 29.1 nM

## YRGAKRMAIL
HLA-B*08:01; [3]
  Kd: 130 nM

## YRKYHVPIM
HLA-B*08:01; [1]
  Kd: 61.8 nM

## YSAPFESEGV
HLA-A*68:02; [3]
  Kd: 2.52 nM
